Measurements as given in patent US20160159922A1.

Molecular target: citrullinated human fibrinogen peptide, residues 36-52 (cit-fib) (human)
Assay: reactivity test against citrullinated peptide; arbitrary units relative to a serum pool standard; antibody at 5 ug/ml

- reactivity (Au/ml at 5 ug/ml): 21 Au/ml
B1: ACPA11 (antibody, V domains shown)
VH: HLQLQESGPKLVKTSETLSLNCSVSRESIVRNDKFWGWVRQPPGKGLEWIGSINPLGRTFYTTSLKDRIRISFDTSEGYFSLSVASVTAADTAIYYCATDGEGVLFDEWSQGTLVTVSS
VL: QPVMTQPPSACGTPGQRVTIPCSGNTSNIGYNIVNWYQQVPGTAPKLLIYDNDKRPSGVPDRFSASKSVTSASLVISGLQSADEADYYCAVWDDDLSGVVIGEGTKLTVL
